The values below come from US20250270315A1 (ELPISCIENCE SUZHOU BIOPHARMA, published 2025).

The target of experiment [1] is full length human SIRPα v1 with a small beta-gal fragment (ED) fused to its C-terminal, expressed in K562 … (human, UniProt P78324 31-504). Nature of the experiment: cell-based or functional assay.
Experiment [2] deals with T1, C57BL/6 mouse SIRPα ECD recombinant protein (6×His tagged) (C57BL/6 mouse, UniProt P97797 32-373).
T1 construct: extracellular domain; Bought from Biointron; not shown: 6×His tag
T1 sequence (looked up): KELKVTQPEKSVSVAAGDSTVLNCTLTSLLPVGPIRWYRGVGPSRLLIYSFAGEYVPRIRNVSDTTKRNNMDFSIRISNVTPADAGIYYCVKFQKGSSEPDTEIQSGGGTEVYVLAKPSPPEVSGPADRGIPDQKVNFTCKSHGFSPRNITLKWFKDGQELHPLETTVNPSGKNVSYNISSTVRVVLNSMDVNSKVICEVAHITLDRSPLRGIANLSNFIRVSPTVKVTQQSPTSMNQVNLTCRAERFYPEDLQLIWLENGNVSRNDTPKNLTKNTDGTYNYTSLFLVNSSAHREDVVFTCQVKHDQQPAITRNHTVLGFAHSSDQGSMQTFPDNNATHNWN
Nature of the experiment: ELISA, recombinant C57BL/6 mouse SIRPα ECD. An excerpt:
Species cross reactivity of purified chimeric antibodies was detected by ELISA assay using recombinant protein of C57BL/6 mouse SIRPα ECD (FIG. 5A) and FACS assay using CHOK 1 cells stably expressing cyno SIRPα (FIGS. 5B and 5C). All antibodies as tested bind to cyno SIRPα at different levels but have no species cross reactivity against C57BL/6 mouse SIRPα.
(In general: ELISA stands for enzyme-linked immunosorbent assay.)

Experiment [3] addresses T2, human SIRPα v2 ECD recombinant protein (tag not given) (human).
T2 construct: extracellular domain; also called ELISA microplate coated human SIRPα v2 ECD
Nature of the experiment: competitive ELISA, mFc-CD47 ECD on coated SIRPα v2 ECD. As for the experimental part: (§1) Competitive ELISA assay was used to determine whether the purified chimeric antibodies can block CD47 and SIRPα interaction. Briefly, antibody and mFc tagged human CD47 ECD recombinant protein were co-incubated with ELISA microplate coated human SIRPα v1 ECD (FIGS. 6A and 6B) or human SIRPα v2 ECD (FIGS. 7A and 7B) recombinant protein. After washing, HRP labeled anti-mouse Fc 2nd antibody (Sigma) was added and incubated at 37° C. for 1 hour. Then, 100 μl/well of TMB solution (Biotechnology) was added. After incubation for 15 minutes at room temperature, the reaction was stopped by the addition of 50 μl of 1N HCl. OD 450 nm was read. Blocking ratio was determined by blockade of human CD47 ECD recombinant protein binding to ELISA microplate coated human SIRPα ECD recombinant protein. Other than 005, all antibodies as tested can block interaction between human CD47 and different human SIRPα variants.

For experiment [4], the target named is T3, human SIRPα v1 ECD recombinant protein (tag not given) (human, UniProt P78324 31-373).
T3 construct: extracellular domain; also called biotin labeled soluble human SIRPα v1 ECD recombinant protein; ELISA microplate coated human SIRPα v1 ECD
Nature of the experiment: competitive ELISA, mFc-CD47 ECD on coated SIRPα v1 ECD. How it is done:
as §1

Experiment [5] concerns the target T4, full length human SIRPα v1 stably expressed on CHOK1 or 293F cells (human, UniProt P78324 31-504).
T4 construct: whole, on cells; also called CHOK1-human SIRPα v1; CHOK1-hSIRPα v1
Nature of the experiment: FACS, CHOK1-hSIRPα v1 cells. In general terms: Flow cytometry measures light scatter and fluorescence of single cells or particles in a stream.

Experiment [6] addresses Human SIRPα v1 (antigen of the Octet and Biacore affinity measurements) (human, UniProt P78324 31-370, limits assumed). Nature of the experiment: BLI (Octet), 1:1 binding model. As for the experimental part:
The purified chimeric antibodies were characterized for binding affinity against human SIRPα v1, human SIRPα v2 using Bio-Layer Interferometry technology (Octet system). The association and dissociation curves were fit with 1:1 binding model, and the Ka/Kd/KD values for each antibody were calculated.
For orientation: In BLI a coated tip is dipped into the sample, and binding shifts an interference pattern.

Experiment [7] addresses T5, human SIRPβ ECD recombinant protein (6×His tagged) (human, UniProt O00241 30-371).
T5 construct: extracellular domain; Bought from Sino Biological; also called hSIRPβ ECD; not shown: 6×His tag
Briefly: ELISA, hSIRPβ ECD. An excerpt:
(§2) Binding activity of the purified chimeric antibodies against SIRPβ and SIRPBI was detected by ELISA assay using recombinant proteins of human SIRPβ ECD (FIGS. 3A and 3B), human SIRPBI ECD (FIGS. 3D and 3E) and FACS assay using CHOK 1 cells stably expressing human SIRPB (FIG. 3C).

Experiment [8] addresses T6, human SIRPβL ECD recombinant protein (6×His tagged) (human, UniProt Q5TFQ8 30-371).
T6 construct: given variously as SIRPBL, SIRPBI and SIRPβI; Bought from Biointron; also called human SIRPBL ECD; human SIRPBI ECD
Briefly: ELISA, hSIRPβI ECD.
Description: as §2

In experiment [9] the target is T7, mFc tagged human SIRPα v1 ECD recombinant protein (human, UniProt P78324 31-373).
T7 construct: extracellular domain; Bought from Biointron; not shown: mouse IgG Fc (mFc) tag
Briefly: competitive ELISA binning, mFc-SIRPα v1 ECD; competitor 025c. As for the experimental part:
(§3) Competitive ELISA assay was used for epitope binning of purified chimeric antibodies. Briefly excessive competitor antibody and mFc tagged human SIRPα v1 ECD recombinant protein were co-incubated with ELISA microplate coated antibody. After washing, HRP labeled anti-mouse Fc 2nd antibody (Sigma) was added and incubated at 37° C. for 1 hour. Then, 100 μl/well of TMB solution (Biotechnology) was added. After incubation for 15 minutes at room temperature, the reaction was stopped by the addition of 50 μl of 1N HCl. OD 450 nm was read. Competition ratio was calculated. The antibodies that can compete each other for binding to SIRPα may have related binding epitopes.

The target of experiment [10] is T7, mFc tagged human SIRPα v1 ECD …. Nature of the experiment: competitive ELISA binning, mFc-SIRPα v1 ECD; competitor 042c. How it is done:
as §3

For experiment [11], the target named is T8, human SIRPβ stably expressed on CHOK1 cells (human, UniProt O00241 30-398).
T8 construct: whole, on cells; also called CHOK1-human SIRPB; CHOK1-hSIRPβ
Nature of the experiment: FACS, CHOK1-hSIRPβ cells.
Description: as §2

Experiment [12] has as its target T9, cyno SIRPγ ECD recombinant protein (cyno).
T9 construct: extracellular domain
Nature of the experiment: ELISA, cyno SIRPγ ECD.

Experiment [13] addresses T7, mFc tagged human SIRPα v1 ECD …. Briefly: competitive ELISA binning, mFc-SIRPα v1 ECD; competitor hu1H9G4. How it is done: as §3
The target in experiment [14] is T10, human SIRPγ stably expressed on 293F cells (human, UniProt Q9P1W8 29-387).
T10 construct: whole, on cells
Briefly: FACS, 293F-human SIRPγ cells.

Experiment [15] concerns the target T4, full length human SIRPα v1 stably …. Briefly: FACS, 293F-hSIRPα v1 cells.

Human SIRPα v1 (antigen of the Octet and Biacore affinity measurements), sequence (P78324 31-370 limits assumed): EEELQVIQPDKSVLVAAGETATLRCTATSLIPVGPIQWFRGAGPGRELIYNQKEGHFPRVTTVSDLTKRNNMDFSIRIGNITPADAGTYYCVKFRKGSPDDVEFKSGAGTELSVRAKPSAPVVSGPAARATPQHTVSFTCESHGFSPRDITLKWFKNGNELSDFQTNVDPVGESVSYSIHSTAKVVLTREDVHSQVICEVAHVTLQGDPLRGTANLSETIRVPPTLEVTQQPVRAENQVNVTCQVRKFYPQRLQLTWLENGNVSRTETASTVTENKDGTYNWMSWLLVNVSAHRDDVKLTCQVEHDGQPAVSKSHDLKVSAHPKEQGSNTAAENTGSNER
T5 sequence (O00241 30-371): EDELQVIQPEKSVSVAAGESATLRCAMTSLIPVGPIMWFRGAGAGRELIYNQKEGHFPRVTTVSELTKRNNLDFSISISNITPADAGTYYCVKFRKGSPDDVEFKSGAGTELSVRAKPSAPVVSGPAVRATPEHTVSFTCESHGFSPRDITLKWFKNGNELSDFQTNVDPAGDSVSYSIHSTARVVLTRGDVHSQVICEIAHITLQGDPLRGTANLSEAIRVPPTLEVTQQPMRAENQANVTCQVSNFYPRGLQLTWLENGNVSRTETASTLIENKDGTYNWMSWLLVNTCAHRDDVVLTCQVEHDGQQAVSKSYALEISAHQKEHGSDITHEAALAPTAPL
full length human SIRPα v1 with a small beta-gal fragment (ED) fused to its C-terminal, expressed in K562 …, sequence (P78324 31-504): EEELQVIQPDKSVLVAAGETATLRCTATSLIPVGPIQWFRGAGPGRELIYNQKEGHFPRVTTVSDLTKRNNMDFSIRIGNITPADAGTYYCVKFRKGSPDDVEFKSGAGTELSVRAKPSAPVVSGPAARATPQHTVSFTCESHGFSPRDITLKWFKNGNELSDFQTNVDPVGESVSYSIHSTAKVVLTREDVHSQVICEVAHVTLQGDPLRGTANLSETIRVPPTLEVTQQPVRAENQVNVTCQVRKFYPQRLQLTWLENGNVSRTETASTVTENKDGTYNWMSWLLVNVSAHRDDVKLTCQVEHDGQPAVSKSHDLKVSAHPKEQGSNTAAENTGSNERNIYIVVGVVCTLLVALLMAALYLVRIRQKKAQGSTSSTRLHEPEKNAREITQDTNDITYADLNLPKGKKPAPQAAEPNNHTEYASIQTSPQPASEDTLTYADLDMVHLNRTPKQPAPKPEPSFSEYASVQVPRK
T4 sequence (P78324 31-504): as above
T8 sequence (O00241 30-398): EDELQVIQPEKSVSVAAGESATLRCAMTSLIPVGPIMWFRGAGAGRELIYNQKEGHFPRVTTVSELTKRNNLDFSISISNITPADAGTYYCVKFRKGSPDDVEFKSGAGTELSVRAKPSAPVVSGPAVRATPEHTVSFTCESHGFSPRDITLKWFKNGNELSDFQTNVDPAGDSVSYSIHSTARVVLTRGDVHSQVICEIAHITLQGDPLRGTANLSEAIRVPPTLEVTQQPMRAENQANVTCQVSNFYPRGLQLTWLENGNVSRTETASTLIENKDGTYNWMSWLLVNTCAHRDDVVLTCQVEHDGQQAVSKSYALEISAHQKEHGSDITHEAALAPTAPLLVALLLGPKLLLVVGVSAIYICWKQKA
T6 sequence (Q5TFQ8 30-371 limits assumed): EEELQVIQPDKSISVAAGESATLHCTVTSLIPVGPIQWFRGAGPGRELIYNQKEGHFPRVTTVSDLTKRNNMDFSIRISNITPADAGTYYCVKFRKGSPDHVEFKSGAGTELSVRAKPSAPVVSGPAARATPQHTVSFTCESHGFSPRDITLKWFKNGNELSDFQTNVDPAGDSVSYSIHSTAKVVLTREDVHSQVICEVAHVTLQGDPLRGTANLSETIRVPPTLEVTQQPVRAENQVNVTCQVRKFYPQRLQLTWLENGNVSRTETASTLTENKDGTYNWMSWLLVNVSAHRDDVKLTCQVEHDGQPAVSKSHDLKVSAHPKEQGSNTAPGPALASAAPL
T3 sequence (P78324 31-373): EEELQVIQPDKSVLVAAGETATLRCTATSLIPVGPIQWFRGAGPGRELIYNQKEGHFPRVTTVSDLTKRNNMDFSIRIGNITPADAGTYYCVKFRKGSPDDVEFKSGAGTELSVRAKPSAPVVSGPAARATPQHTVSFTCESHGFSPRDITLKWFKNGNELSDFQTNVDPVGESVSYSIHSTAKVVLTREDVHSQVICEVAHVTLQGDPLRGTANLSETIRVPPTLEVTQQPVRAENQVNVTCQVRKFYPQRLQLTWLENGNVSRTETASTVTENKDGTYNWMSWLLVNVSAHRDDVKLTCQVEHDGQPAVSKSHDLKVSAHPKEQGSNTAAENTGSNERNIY
T7 sequence (P78324 31-373): as above
T10 sequence (Q9P1W8 29-387): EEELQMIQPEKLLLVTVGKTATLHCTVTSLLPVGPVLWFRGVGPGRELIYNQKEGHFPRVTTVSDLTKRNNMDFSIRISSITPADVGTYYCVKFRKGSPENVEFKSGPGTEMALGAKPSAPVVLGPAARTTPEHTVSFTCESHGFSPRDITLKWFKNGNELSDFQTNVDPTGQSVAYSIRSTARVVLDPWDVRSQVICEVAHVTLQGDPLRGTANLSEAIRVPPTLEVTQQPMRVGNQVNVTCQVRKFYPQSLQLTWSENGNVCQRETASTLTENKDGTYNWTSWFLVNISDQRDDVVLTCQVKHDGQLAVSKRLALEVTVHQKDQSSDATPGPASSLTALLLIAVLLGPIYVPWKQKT

B1: 042c (antibody, V domains shown)
VH: QIQLVQSGPELKKPGETVKISCRASGYTFTTYGMSWVKQAPGKGLRWMGWINTYSGVSTCADDFKGRFAFSLETSATTAYLQIHNLTNEDTATYFCARDPHSYGNSPAWFPYWGQGTLVTVSA
VL: DIVMTQSQKFMSTTIRDRVSITCKASQNVGISVAWYQQKSGQSPKLLIYSASNRYTGVPDRFTGSGSGTDFTLTISNMQSEDLADYFCQQYSSYPLTFGSGTKLAIK
notes: also called chimeric antibody 042c
For orientation: IC50 means the point on the concentration scale where inhibition reaches its midpoint. A word on the EC50: it is the concentration at which the effect is half-maximal. The term Kd denotes the constant that tells how readily two partners part at equilibrium. High values mean a looser complex, low ones a tighter complex. For orientation: koff means the rate constant with which the complex falls apart. By kon is commonly meant the rate constant with which the complex forms. B1: the “SHP-1 recruitment blocking, IC50” value in experiment [1] turned out to be 0.99 nM. In addition, in experiment [1], the “SHP-1 recruitment blocking, TOP blocking (%)” value was found to be 70%. For the same molecule, the binding result in experiment [2] is “no binding”. Also, the IC50 in experiment [3] was 4.49 nM; in [4], 3.6 nM. Besides, the “TOP blocking (%)” value in experiment [3] was 94.6%; in [4] it was 97.1%. Further, the EC50 in experiment [5] came to 1.9 nM; in [7] it was 0.23 nM; in [8] it was 0.39 nM; in experiment [11] it was 39.8 nM; in experiment [12], 20.5 nM. The figures for the “TOP MFI” value in experiment [5] and in [11] were 73200 MFI and 3910 MFI, respectively. This molecule returned a dissociation constant Kd in experiment [6] of 9.2 nM. Moreover, the koff in experiment [6] is 0.00545 s⁻¹. The molecule also had a kon in experiment [6] of 593000 M⁻¹ s⁻¹. In addition, the “TOP OD450” value was found to be 3.23 OD450 in [7], 2.69 OD450 in experiment [8] and 1.22 OD450 in [12]. For the same molecule, the entries for the “% Competition” value in experiment [9], in [10] and in [13] were 8.9%, 93.9% and 29.8%, respectively.

B2: 073c (antibody, V domains shown)
VH: QIQLVQSGPELKKPGETVKISCKASGYTFTTYGMSWVKQAPGKGLKWMVWINTYSGVPTYADDFKGRFAFSLETSASTSYLQINNLKNEDTATYFCARDPHYYGSSPAWFVYWGQGTLVTVSA
VL: DIVMTQSQKFMSTTIGDRVSITCEASQIVGIAVAWYQQKPGQSPKLLIYSASNRYTGVPDRFTGSGSGTDFTLTISNMQSEDLANYFCQQYSAYPFTFGSGTKLEVK
notes: also called chimeric antibody 073c
As to B2, in experiment [1], the “SHP-1 recruitment blocking, IC50” value worked out at 5.66 nM. Moreover, in experiment [1], the “SHP-1 recruitment blocking, TOP blocking (%)” value was 51.2%. Besides, the binding result in experiment [2] is “no binding”. Also, the half-maximal inhibitory concentration (IC50) in experiment [3] was found to be 4.92 nM; in experiment [4], 2.74 nM. Further, the figures for the “TOP blocking (%)” value in [3] and in experiment [4] were 82.8% and 95.1%, respectively. Moreover, the EC50 in experiment [5] came out at 1.5 nM; in experiment [7], 2.14 nM; in experiment [8], 0.27 nM; in [14], 12.6 nM; in experiment [11], 22.9 nM; in [12], 45.5 nM. Further, the “TOP MFI” value in experiment [5] was found to be 67800 MFI; in experiment [14], 728 MFI; in experiment [11], 2630 MFI. Further, in [6], the Kd is 6.07 nM. Further, the off-rate (koff) in experiment [6] turned out to be 0.00303 s⁻¹. Besides, the kon in experiment [6] came out at 499000 M⁻¹ s⁻¹. Further, the entries for the “TOP OD450” value in experiment [7], in experiment [8] and in [12] were 3.07 OD450, 2.64 OD450 and 0.92 OD450, respectively. Besides, the “% Competition” value was determined as 9.1% in experiment [9], 93.6% in experiment [10] and 37.7% in experiment [13].

B3: 005c (antibody, V domains shown)
VH: EVKLVESGGGLVQPGGSLSLSCAASGFTFTDYYMSWVRQPPGKALEWLGFIKNEANGYTTESSASVKGRFTISRDNSQSILYLQMNALRAEDSATYYCARYDYYGSNYNWYFDAWGTGTTVTVSS
VL: DIVMTQSQKFMSPSVGDRVSITCKASQNVRTAVAWYQQKPGQSPKVLIHLASKRHTGVPDRFTGSGSGTDFTLTISNVQSEDLADYFCLQHWIHPLTFGAGTKLELK
notes: also called chimeric antibody 005c
With B3, in [1], the “SHP-1 recruitment blocking, IC50” value turned out to be 3.85 nM and the “SHP-1 recruitment blocking, TOP blocking (%)” value came to 76.4%. This molecule also showed an EC50 in experiment [15] of 3.88 nM.
